The record followed here is the RNAGym collection of RNA variant scans (doi:10.7554/elife.80360).

B1: CPEB3 Ribozyme (parent)
chain: GGGGGCCACAGCAGAAGCGUUCACGUCGCGGCCCCUGUCAGAUUCUGGUGAAUCUGCGAAUUCUGCUGU

Variants of B1 are the subject of the data set. Description: self-cleavage, relative activity (ratio to wild type); higher = more cleavage; co-transcriptional.
Consider GGGGGCCACAGCAGAAGCGUUCACGUCGCGGCCCCUUUCAGAUUGUGGUGAAUCUGCGAAUUCUGCUGU [G37U C45G], for which the self-cleavage was 0.286. With GGGGGCCACAGCAGAAGCGUUCACGUCGCGGCCCCUUUCAGAUUUUGGUGAAUCUGCGAAUUCUGCUGU [G37U C45U], the self-cleavage was 0.316. Regarding GGGGGCCACAGCAGAAGCGUUCACGUCGCGGCCCCUUUCAGAUUCUGGUGAAUCUGCGAAUUAUGCUGU [G37U C63A], the self-cleavage was determined as 0.239. In the case of GGGGGCCACAGCAGAAGCGUUCACGUCGCGGCCCCUUUCAGAUUCUGGUGAAUCUGCGAAUUGUGCUGU [G37U C63G], the self-cleavage was found to be 0.312. As for GGGGGCCACAGCAGAAGCGUUCACGUCGCGGCCCCUUUCAGAUUCUGGUGAAUCUGCGAAUUUUGCUGU [G37U C63U], the self-cleavage was 0.271.

On to GGGGGCCACAGCAGAAGCGUUCACGUCGCGGCCCCUCCCAGAUUCUGGUGAAUCUGCGAAUUCUGCUGU [G37C U38C], for which the self-cleavage was determined as 0.201.

For the variant GGGGGCCACAGCAGAAGCGUUCACGUCGCGGCCCCUCACAGAUUCUGGUGAAUCUGCGAAUUCUGCUGU [G37C U38A], the self-cleavage worked out at 0.246. Regarding GGGGGCCACAGCAGAAGCGUUCACGUCGCGGCCCCUCUCAGAUUCUGGUGAAUCUGCAAAUUCUGCUGU [G37C G58A], the self-cleavage is 0.242. With GGGGGCCACAGCAGAAGCGUUCACGUCGCGGCCCCUCUCAGAUUCUGGUGAAUCUGCUAAUUCUGCUGU [G37C G58U], the self-cleavage is 0.353.

With GGGGGCCACAGCAGAAGCGUUCACGUCGCGGCCCCUCUCAGAUUCUGGUGAAUCUGCCAAUUCUGCUGU [G37C G58C], the self-cleavage is 0.277. As to GGGGGCCACAGCAGAAGCGUUCACGUCGCGGCCCCUUUCAGAUUCUGGUGAAUCUGCGAAUUCUGCUGU [G37U], the self-cleavage came to 0.319.

In the case of GGGGGCCACAGCAGAAGCGUUCACGUCGCGGCCCCUUUCAGAUUCUGGUUAAUCUGCGAAUUCUGCUGU [G37U G50U], the self-cleavage was determined as 0.379. Consider GGGGGCCACAGCAGAAGCGUUCACGUCGCGGCCCCUUUCAGAUACUGGUGAAUCUGCGAAUUCUGCUGU [G37U U44A], for which the self-cleavage was 0.213.

With GGGGGCCACAGCAGAAGCGUUCACGUCGCGGCCCCUUUCAGAUGCUGGUGAAUCUGCGAAUUCUGCUGU [G37U U44G], the self-cleavage was found to be 0.231. With GGGGGCCACAGCAGAAGCGUUCACGUCGCGGCCCCUUUCAGUUUCUGGUGAAUCUGCGAAUUCUGCUGU [G37U A42U], the self-cleavage came to 0.246. For GGGGGCCACAGCAGAAGCGUUCACGUCGCGGCCCCUUUCAGGUUCUGGUGAAUCUGCGAAUUCUGCUGU [G37U A42G] the value was 0.234; for GGGGGCCACAGCAGAAGCGUUCACGUCGCGGCCCCUUUCAGCUUCUGGUGAAUCUGCGAAUUCUGCUGU [G37U A42C], 0.256; for GGGGGCCACAGCAGAAGCGUUCACGUCGCGGCCCCUUUCAGAUUCUGGUGAAUCUGCGAAUUCUACUGU [G37U G65A], 0.234. As to GGGGGCCACAGCAGAAGCGUUCACGUCGCGGCCCCUUUCAGAUUCUGGUGAAUCUGCGAAUUCUUCUGU [G37U G65U], the self-cleavage stood at 0.265. Take GGGGGCCACAGCAGAAGCGUUCACGUCGCGGCCCCUUUCAGAUUCUGGUGAAUCUGCGAAUUCUGCUCU [G37U G68C]: the self-cleavage worked out at 0.42.

For the variant GGGGGCCACAGCAGAAGCGUUCACGUCGCGGCCCCUUUCAGAUUCUGGUGAAUCUGCGAAUUCUGCUAU [G37U G68A], the self-cleavage came to 0.438. GGGGGCCACAGCAGAAGCGUUCACGUCGCGGCCCCUCUCAGAUUCUGGUGAAUCAGCGAAUUCUGCUGU [G37C U55A]: the self-cleavage amounted to 0.25.

As for GGGGGCCACAGCAGAAGCGUUCACGUCGCGGCCCCUCUCAGAUUCUGGUGAAUCGGCGAAUUCUGCUGU [G37C U55G], the self-cleavage amounted to 0.236. Take GGGGGCCACAGCAGAAGCGUUCACGUCGCGGCCCCUCUCAGAUUCUGGUGAAUCCGCGAAUUCUGCUGU [G37C U55C]: the self-cleavage was 0.267. For GGGGGCCACAGCAGAAGCGUUCACGUCGCGGCCCCUCUCAGAUUCUGGUGAAUCUGCGAAGUCUGCUGU [G37C U61G] the value was 0.282; for GGGGGCCACAGCAGAAGCGUUCACGUCGCGGCCCCUCUCAGAUUCUGGUGAAUCUGCGAACUCUGCUGU [G37C U61C], 0.223. The result for GGGGGCCACAGCAGAAGCGUUCACGUCGCGGCCCCUCUCAGAUUCUGGUGAAUCUGCGAAAUCUGCUGU [G37C U61A] reads 0.201; that for GGGGGCCACAGCAGAAGCGUUCACGUCGCGGCCCCUUUCAGACUCUGGUGAAUCUGCGAAUUCUGCUGU [G37U U43C], 0.236.

GGGGGCCACAGCAGAAGCGUUCACGUCGCGGCCCCUUUCAGAAUCUGGUGAAUCUGCGAAUUCUGCUGU [G37U U43A]: the self-cleavage turned out to be 0.209. For the variant GGGGGCCACAGCAGAAGCGUUCACGUCGCGGCCCCUUUCAAAUUCUGGUGAAUCUGCGAAUUCUGCUGU [G37U G41A], the self-cleavage came to 0.244. For GGGGGCCACAGCAGAAGCGUUCACGUCGCGGCCCCUUUCACAUUCUGGUGAAUCUGCGAAUUCUGCUGU [G37U G41C], the self-cleavage is 0.139. For the variant GGGGGCCACAGCAGAAGCGUUCACGUCGCGGCCCCUUUCAGAUUCCGGUGAAUCUGCGAAUUCUGCUGU [G37U U46C], the self-cleavage is 0.292. On to GGGGGCCACAGCAGAAGCGUUCACGUCGCGGCCCCUUUCAGAUUCGGGUGAAUCUGCGAAUUCUGCUGU [G37U U46G], for which the self-cleavage is 0.263.

GGGGGCCACAGCAGAAGCGUUCACGUCGCGGCCCCUUUCAGAUUCAGGUGAAUCUGCGAAUUCUGCUGU [G37U U46A]: the self-cleavage turned out to be 0.416.

Consider GGGGGCCACAGCAGAAGCGUUCACGUCGCGGCCCCUUUCAGAUUCUGGUGAGUCUGCGAAUUCUGCUGU [G37U A52G], for which the self-cleavage turned out to be 0.282. Take GGGGGCCACAGCAGAAGCGUUCACGUCGCGGCCCCUUUCAGAUUCUGGUGAUUCUGCGAAUUCUGCUGU [G37U A52U]: the self-cleavage amounted to 0.317. Consider GGGGGCCACAGCAGAAGCGUUCACGUCGCGGCCCCUCUCAGAUUCUGGUUAAUCUGCGAAUUCUGCUGU [G37C G50U], for which the self-cleavage is 0.188.

As to GGGGGCCACAGCAGAAGCGUUCACGUCGCGGCCCCUUUCAGAUUCUGGUGAAUCUGCGAAUUCUGGUGU [G37U C66G], the self-cleavage came out at 0.201. The result for GGGGGCCACAGCAGAAGCGUUCACGUCGCGGCCCCUUUCAGAUUCUGGUGAAUCUGCGAAUUCUGAUGU [G37U C66A] reads 0.267.
